Consider four compounds from patent publication US12233115B2, “Long-acting parathyroid hormone” (Extend Biosciences, Inc., priority 2022, dated 2025).

One series addresses T1, DBP (Homo sapiens, UniProt P02774).
T1 sequence (P02774 17-474): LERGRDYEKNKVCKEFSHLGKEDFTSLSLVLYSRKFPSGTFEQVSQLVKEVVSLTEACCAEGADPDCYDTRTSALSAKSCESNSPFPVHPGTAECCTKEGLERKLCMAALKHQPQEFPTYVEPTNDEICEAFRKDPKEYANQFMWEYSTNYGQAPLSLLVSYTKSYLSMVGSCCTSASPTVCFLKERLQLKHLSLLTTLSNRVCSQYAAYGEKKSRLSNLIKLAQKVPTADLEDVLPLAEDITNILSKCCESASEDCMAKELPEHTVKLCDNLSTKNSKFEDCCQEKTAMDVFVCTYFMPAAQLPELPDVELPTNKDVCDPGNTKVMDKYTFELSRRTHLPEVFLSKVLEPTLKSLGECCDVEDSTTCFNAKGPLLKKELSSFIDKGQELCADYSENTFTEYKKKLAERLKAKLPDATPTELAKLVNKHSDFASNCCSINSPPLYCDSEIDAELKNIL
The following applies: Norman et al. 2001, p. 51; cited from earlier work.

Another series has as its system VDRnuc. As to conditions: Norman et al. 2001, p. 51; cited from earlier work.
Another series in a line: Solubility in PBS (A280). Type of series: physicochemical. The method, then:
PEG Length and Counterion Affects Solubility: The solubility of the acetate and carbonate salt form of each compound was determined as follows. For EXT611, EXT606, and EXT608, phosphate buffered saline (PBS) was added to each compound to form a saturated solution. Undissolved compound was removed by centrifugation. The concentration of dissolved compound was determined by measuring the absorbance at 280 nm using an extinction coefficient of 18,600 M^−1 cm^−1. For EXT615, EXT616, and EXT617, solubility was limited practically by the high viscosity imparted by the large PEG moieties. Highly viscous drug formulations are difficult to manipulate and require large needle bore sizes that cause increased injection site pain. PBS was added to EXT615, EXT616, and EXT617 incrementally until a solution was obtained that could be successfully pipetted through a pipet tip with a bore of approximately 1 mm diameter (enlarged by removing the end with a razor blade). The concentration of dissolved compound was determined by measuring the absorbance at 280 nm using an extinction coefficient of 18,600 M^−1 cm^−1. […] For EXT608, the acetate salt was 17.6-fold more soluble than the carbonate salt.

The conditions of series [1]: human, in vivo, cited from earlier work.

By solubility is commonly meant the concentration that dissolves in the medium under given conditions.

Like-named read-outs stand apart in the source and are kept apart here.

As for 25-hydroxyvitamin D [25(OH)D3], at DBP, the “fold tighter binding to DBP than 1α,25(OH)2D3” value is 668 fold.
On to `C=C1/C(=C\C=C2/CCC[C@]3(C)[C@@H]([C@H](C)CCCC(C)(C)O)CC[C@@H]23)C[C@@H](O)C[C@@H]1O` [1α,25(OH)2D3, 1,25-dihydroxyvitamin D3], for which the “fold tighter binding to VDRnuc than 25(OH)D3” value with VDRnuc is 668 fold.
Turning to `C=C1CC[C@H](OCCCNC(=O)CCOCCOCCOCCOCCOCCOCCOCCOCCOCCOCCOCCOCCOCCOCCOCCOCCOCCOCCOCCOCCOCCOCCOCCOCCNC(=O)CCN2C(=O)CC(SC[C@H](NC(=O)[C@H](Cc3ccccc3)NC(=O)[C@H](CC(N)=O)NC(=O)[C@H](Cc3c[nH]cn3)NC(=O)[C@@H](NC(=O)[C@H](CC(=O)O)NC(=O)[C@H](CCC(N)=O)NC(=O)[C@H](CC(C)C)NC(=O)[C@H](CCCCN)NC(=O)[C@H](CCCCN)NC(=O)[C@H](CCCNC(=N)N)NC(=O)[C@H](CC(C)C)NC(=O)[C@H](Cc3c[nH]c4ccccc34)NC(=O)[C@H](CCC(=O)O)NC(=O)[C@@H](NC(=O)[C@H](CCCNC(=N)N)NC(=O)[C@H](CCC(=O)O)NC(=O)[C@H](CCSC)NC(=O)[C@H](CO)NC(=O)[C@H](CC(N)=O)NC(=O)[C@H](CC(C)C)NC(=O)[C@H](Cc3c[nH]cn3)NC(=O)[C@H](CCCCN)NC(=O)CNC(=O)[C@H](CC(C)C)NC(=O)[C@H](CC(N)=O)NC(=O)[C@H](Cc3c[nH]cn3)NC(=O)[C@H](CCSC)NC(=O)[C@H](CC(C)C)NC(=O)[C@H](CCC(N)=O)NC(=O)[C@@H](NC(=O)[C@H](CCC(=O)O)NC(=O)[C@H](CO)NC(=O)[C@@H](NC(=O)[C@@H](N)CO)C(C)C)[C@@H](C)CC)C(C)C)C(C)C)C(N)=O)C2=O)C/C1=C/C=C1\CCC[C@]2(C)[C@@H]([C@H](C)CCCC(C)(C)O)CC[C@@H]12` (some centres unmarked) [EXT606], the solubility in the series “Solubility in PBS (A280)” (acetate salt, read-out: Solubility as Acetate) turned out to be 907 µM; in the series “Solubility in PBS (A280)” (carbonate salt, read-out: Solubility as Carbonate), 200 µM.
Take “PTH: Parathyroid hormone, polypeptide containing 84 amino acids (SEQ ID NO:2); literature half-life values”: in series [1] (iv), the plasma half-life result is “less than 15 minutes” and the serum half-life entry is recorded as “approximately 5 minutes”. Further, in series [1] (sc), the apparent half-life is 1.5 to 2.5 h and the “plasma half-life (estimated)” value was 2 to 3 h.
